# Laboratory results taken from paper PMC9643335.
# Molecular target: Trypanosoma brucei ADAT3 (Trypanosoma brucei)
# Assay: cryo-EM structure; TbADAT2/3 heterodimer co-expressed in Hi5 cells, purified via the His tag on TbADAT3 (1 M KCl wash), tag cleaved, SEC; mixed with in vitro transcribed TbtRNA-Thr(CGU) in 20 mM Hepes pH 7.5, 50 mM NaCl, 2 mM MgCl2, 0.5 mM TCEP, SEC, vitrified
substance,measurement,value
Trypanosoma brucei ADAT2 (A87G/C117S) (enzyme),stoichiometry N,1
